Values joined by “and” are separate entries in the source; they are usually repeats but may differ in a detail not shown here. Equal values may be shown once.
Columns and labels:
[1] = target: ClpA-Δ10 (linker deletion mutant, residues 145 to 154 deleted) (E. coli) (UniProt P0ABH9)
[2] = target: ClpA (wild type), ATPγS-assembled hexamer (E. coli) (UniProt P0ABH9)
[3] = target: ClpA-Δ15 (linker deletion mutant, residues 145 to 159 deleted) (E. coli) (UniProt P0ABH9)
[4] = target: ClpA-Δ153 (N-domain-deleted form of ClpA) (E. coli) (UniProt P0ABH9)
[5] = target: T1, ClpP peptidase (tetradecamer) (UniProt P0A6G7 15-207); assay: cryo-electron microscopy with 2D averaging and variance maps of side-views
[6] = target: the molecule itself; assay: as above
[7] = target: T1, ClpP peptidase (tetradecamer); assay: cryo-EM structure
cryo-EM structure = target: the molecule itself; assay: cryo-EM structure

T1 sequence (P0A6G7 15-207): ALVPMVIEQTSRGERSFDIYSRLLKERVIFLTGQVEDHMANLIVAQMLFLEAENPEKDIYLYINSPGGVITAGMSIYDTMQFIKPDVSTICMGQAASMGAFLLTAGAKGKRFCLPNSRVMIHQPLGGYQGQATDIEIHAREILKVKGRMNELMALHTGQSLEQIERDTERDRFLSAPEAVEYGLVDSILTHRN

How did the Km of GFP-SsrA degradation, 37 °C (μM protein monomer) [1] turn out when GFP-SsrA was run?
Its Km of GFP-SsrA degradation, 37 °C (μM protein monomer) is 1.7.

And the Km of GFP-SsrA degradation, 37 °C (μM protein monomer) [2]?
The Km of GFP-SsrA degradation, 37 °C (μM protein monomer) was 1.7.

What about the Km of GFP-SsrA degradation, 37 °C (μM protein monomer) [3] of the same molecule?
Its Km of GFP-SsrA degradation, 37 °C (μM protein monomer) is 1.5.

And the Km of GFP-SsrA degradation, 37 °C (μM protein monomer) [4]?
Its Km of GFP-SsrA degradation, 37 °C (μM protein monomer) is 1.

For α-casein (natural protein), which Km of α-casein degradation, 37 °C (μM protein monomer) [2] is on record?
The Km of α-casein degradation, 37 °C (μM protein monomer) was 0.2.

And the Km of α-casein degradation, 37 °C (μM protein monomer) [3]?
Its Km of α-casein degradation, 37 °C (μM protein monomer) is 0.35.

B1: ClpA-Δ10 (linker deletion mutant, residues 145 to 154 deleted) (enzyme, E. coli, UniProt P0ABH9 1-758, looked up)
chain: MLNQELELSLNMAFARAREHRHEFMTVEHLLLALLSNPSAREALEACSVDLVALRQELEAFIEQTTPVLPASEEERDTQPTLSFQRVLQRAVFHVQSSGRNEVTGANVLVAIFSEQESQAAYLLRKHEVSRLDVVNFISHGTRKSQPNSEEQAGGEERMENFTTNLNQLARVGGIDPLIGREKELERAIQVLCRRRKNNPLLVGESGVGKTAIAEGLAWRIVQGDVPEVMADCTIYSLDIGSLLAGTKYRGDFEKRFKALLKQLEQDTNSILFIDEIHTIIGAGAASGGQVDAANLIKPLLSSGKIRVIGSTTYQEFSNIFEKDRALARRFQKIDITEPSIEETVQIINGLKPKYEAHHDVRYTAKAVRAAVELAVKYINDRHLPDKAIDVIDEAGARARLMPVSKRKKTVNVADIESVVARIARIPEKSVSQSDRDTLKNLGDRLKMLVFGQDKAIEALTEAIKMARAGLGHEHKPVGSFLFAGPTGVGKTEVTVQLSKALGIELLRFDMSEYMERHTVSRLIGAPPGYVGFDQGGLLTDAVIKHPHAVLLLDEIEKAHPDVFNILLQVMDNGTLTDNNGRKADFRNVVLVMTTNAGVRETERKSIGLIHQDNSTDAMEEIKKIFTPEFRNRLDNIIWFDHLSTDVIHQVVDKFIVELQVQLDQKGVSLEVSQEARNWLAEKGYDRAMGARPMARVIQDNLKKPLANELLFGSLVDGGQVTVALDKEKNELTYGFQSAQKHKAEAAH
Which “stoichiometry N” value [5] does the source give for B1 here?
The value was 1 ClpA hexamers per ClpP tetradecamer and 2 ClpA hexamers per ClpP tetradecamer.

And the “stoichiometry N” value [6]?
The value was 6 subunits.

B2: ClpA (wild type), ATPγS-assembled hexamer (enzyme, E. coli, UniProt P0ABH9 1-758, looked up)
chain: MLNQELELSLNMAFARAREHRHEFMTVEHLLLALLSNPSAREALEACSVDLVALRQELEAFIEQTTPVLPASEEERDTQPTLSFQRVLQRAVFHVQSSGRNEVTGANVLVAIFSEQESQAAYLLRKHEVSRLDVVNFISHGTRKDEPTQSSDPGSQPNSEEQAGGEERMENFTTNLNQLARVGGIDPLIGREKELERAIQVLCRRRKNNPLLVGESGVGKTAIAEGLAWRIVQGDVPEVMADCTIYSLDIGSLLAGTKYRGDFEKRFKALLKQLEQDTNSILFIDEIHTIIGAGAASGGQVDAANLIKPLLSSGKIRVIGSTTYQEFSNIFEKDRALARRFQKIDITEPSIEETVQIINGLKPKYEAHHDVRYTAKAVRAAVELAVKYINDRHLPDKAIDVIDEAGARARLMPVSKRKKTVNVADIESVVARIARIPEKSVSQSDRDTLKNLGDRLKMLVFGQDKAIEALTEAIKMARAGLGHEHKPVGSFLFAGPTGVGKTEVTVQLSKALGIELLRFDMSEYMERHTVSRLIGAPPGYVGFDQGGLLTDAVIKHPHAVLLLDEIEKAHPDVFNILLQVMDNGTLTDNNGRKADFRNVVLVMTTNAGVRETERKSIGLIHQDNSTDAMEEIKKIFTPEFRNRLDNIIWFDHLSTDVIHQVVDKFIVELQVQLDQKGVSLEVSQEARNWLAEKGYDRAMGARPMARVIQDNLKKPLANELLFGSLVDGGQVTVALDKEKNELTYGFQSAQKHKAEAAH
With B2 as the molecule, how does the “stoichiometry N” value [7] read?
The value was 1 ClpA hexamers per ClpP tetradecamer.

What about the “stoichiometry N” value (cryo-EM structure) of the same molecule?
Its value is 6 subunits.

B3: ClpA-Δ15 (linker deletion mutant, residues 145 to 159 deleted) (enzyme, E. coli, UniProt P0ABH9 1-758, looked up)
chain: MLNQELELSLNMAFARAREHRHEFMTVEHLLLALLSNPSAREALEACSVDLVALRQELEAFIEQTTPVLPASEEERDTQPTLSFQRVLQRAVFHVQSSGRNEVTGANVLVAIFSEQESQAAYLLRKHEVSRLDVVNFISHGTRKEEQAGGEERMENFTTNLNQLARVGGIDPLIGREKELERAIQVLCRRRKNNPLLVGESGVGKTAIAEGLAWRIVQGDVPEVMADCTIYSLDIGSLLAGTKYRGDFEKRFKALLKQLEQDTNSILFIDEIHTIIGAGAASGGQVDAANLIKPLLSSGKIRVIGSTTYQEFSNIFEKDRALARRFQKIDITEPSIEETVQIINGLKPKYEAHHDVRYTAKAVRAAVELAVKYINDRHLPDKAIDVIDEAGARARLMPVSKRKKTVNVADIESVVARIARIPEKSVSQSDRDTLKNLGDRLKMLVFGQDKAIEALTEAIKMARAGLGHEHKPVGSFLFAGPTGVGKTEVTVQLSKALGIELLRFDMSEYMERHTVSRLIGAPPGYVGFDQGGLLTDAVIKHPHAVLLLDEIEKAHPDVFNILLQVMDNGTLTDNNGRKADFRNVVLVMTTNAGVRETERKSIGLIHQDNSTDAMEEIKKIFTPEFRNRLDNIIWFDHLSTDVIHQVVDKFIVELQVQLDQKGVSLEVSQEARNWLAEKGYDRAMGARPMARVIQDNLKKPLANELLFGSLVDGGQVTVALDKEKNELTYGFQSAQKHKAEAAH
What does the source list for B3?
stoichiometry N [5]: 1 ClpA hexamers per ClpP tetradecamer and 2 ClpA hexamers per ClpP tetradecamer; stoichiometry N [6]: 6 subunits

Reference: publication PMC2871031 (Structure (London, England : 1993), 2010)
